The target in assay [1] is T1, TIM-1 (T cell, immunoglobulin domain and mucin domain 1), cell membrane-bound (human, UniProt Q96D42 21-364).
T1 construct: whole, on cells; also called TIM-1 antigen expressed on ACHN, CAKI-2, CAKI-1 cells; TIM-1 on polarized human CD4+ Th1/Th2 cells
T1 sequence (looked up): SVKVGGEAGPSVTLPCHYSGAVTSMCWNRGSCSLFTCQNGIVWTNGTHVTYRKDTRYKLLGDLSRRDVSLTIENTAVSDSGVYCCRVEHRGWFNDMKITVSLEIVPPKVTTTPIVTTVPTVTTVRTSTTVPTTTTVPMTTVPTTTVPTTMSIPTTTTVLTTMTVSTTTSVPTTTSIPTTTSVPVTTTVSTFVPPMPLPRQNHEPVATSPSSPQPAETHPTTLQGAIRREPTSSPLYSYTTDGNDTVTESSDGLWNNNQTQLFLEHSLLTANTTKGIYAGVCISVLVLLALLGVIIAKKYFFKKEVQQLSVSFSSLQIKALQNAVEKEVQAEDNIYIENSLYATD
The assay can be described thus: FACS on ACHN cells, normalised to isotype control pK16.

The target of assay [2] is T2, TIM-1 antigen, soluble extracellular domain of TIM-1 (CG57008-02) with a V5-HIS tag (human, UniProt Q96D42 21-288).
T2 construct: also called TIM-1 immunogen; TIM-1 protein
T2 sequence: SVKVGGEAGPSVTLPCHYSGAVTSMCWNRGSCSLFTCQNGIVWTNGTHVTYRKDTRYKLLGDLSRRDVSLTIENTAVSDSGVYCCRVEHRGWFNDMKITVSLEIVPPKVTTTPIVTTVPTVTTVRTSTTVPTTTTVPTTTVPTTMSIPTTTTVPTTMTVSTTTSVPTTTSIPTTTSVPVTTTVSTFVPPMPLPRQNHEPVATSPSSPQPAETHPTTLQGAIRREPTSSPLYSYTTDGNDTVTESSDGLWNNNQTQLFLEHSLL
The assay can be described thus: BIAcore 2000, 25 C, mAb captured on goat anti-human surface, TIM-1 antigen injected at 292 nM.

For assay [3], the target named is T3, alanine scan peptide PMPLARQNHE
T3 construct: Synthetic; third P replaced by A
T3 peptide: PMPLARQNHE
The assay can be described thus: ELISA on coated synthetic peptide (alanine scan).

Assay [4] concerns the target T4, alanine scan peptide PMPLPRQAHE
T4 construct: Synthetic; N replaced by A
T4 peptide: PMPLPRQAHE
The assay can be described thus: ELISA on coated synthetic peptide (alanine scan).

For assay [5], the target named is T1, TIM-1 (T cell, immunoglobulin domain …). The assay is described as follows: FACS on CAKI-2 cells, normalised to isotype control pK16.

B1: anti-TIM-1 monoclonal antibody 2.16 (antibody, V domains shown)
VH: EQSGGGVVKPGGSLRLSCAASGFTFSNAWMTWVRQAPGKGLEWVGRIKRRTDGGTTDYAAPVKGRFTISRDDSKNTLYLQMNNLKNEDTAVYYCTSVDNDVDYWGQGTLVTVSS
VL: not shown
notes: also called 2.16.1 (subclone)
Take B1: the “Geo Mean Ratio (relative to negative control)” value in assay [1] turned out to be 7.9 ratio. In assay [2], this molecule gave a Kd of 0.79 nM.

B2: anti-TIM-1 monoclonal antibody 1.29 (antibody, V domains shown)
VH: QVQLQESGPGLVKPSETLSLTCTVSGGSVSSGGYYWSWIRQPPGKGLEWIGFIYYTGSTNYNPSLKSRVSISVDTSKNQFSLKLSSVTAADAAVYYCARDYDWSFHFDYWGQGTLVTVSS
VL: DIQMTQSPSSLSASIGDRVTITCRASQGIRNDLGWYQQKPGKAPKRLIYAASSLQSGVPSRFSGSGSGTEFTLTISSLQPEDFATYYCLQHNSYPLTFGGGTKVEIKR
notes: also called mAb 1.29
On to B2, for which, in assay [1], the “Geo Mean Ratio (relative to negative control)” value is 17.9 ratio. In assay [2], the affinity, expressed as Kd, was 3.64 nM.

B3: anti-TIM-1 monoclonal antibody 2.61 (antibody, V domains shown)
VH: QVQLVEAGGGVVQPGRSLRLSCAASGFTFRSYGMHWVRQAPGKGLKWVAVIWYDGSNKYYTDSVKGRFTISRDNSKNTLYLQMNSLRAEDTAVYYCVRDYYDNSRHHWGFDYWGQGTLVTVSS
VL: DIQMTQSPSSRCASVGDRVTITCRASQGIRNDLAWYQQKPGKAPKRLIYAASSLQSGVPSRFSGSRSGTEFTLTISSLQPEDFAAYYCLQHNSYPPSFGQGTKLEIKR
Take B3: in assay [2], the Kd amounted to 1 nM. That is a single-digit nanomolar value.

B4: anti-TIM-1 monoclonal antibody 2.76 (antibody, V domains shown)
VH: EQSGGGVVQPGRSLRLSCAASGFTFSSYGMYWVRQAPGKGLEWVAVIWYDGSNKYYADSVKGRFTISRDNSKNTLYLQMNSLRAEDTAVYYCARDFYDSSRYHYGMDVWGQGTTVTVSS
VL: TQCPLSLPVTPGEPASISCRSSQSLLDSDDGNTYLDWYLQKPGQSPQLLIYTVSYRASGVPDRFSGSGSGTDFTLKISRVEAEDVGVYYCMQRIEFPITFGQGTRLEIKR
In turn, B4 displayed a Kd in assay [2] of 0.57 nM.

B5: anti-TIM-1 monoclonal antibody 2.70 (antibody, V domains shown)
VH: QVQLVESGGGVVQPGRSLRLSCAASGFIFSRYGMHWVRQAPGKGLKWVAVIWYDGSNKLYADSVKGRFTISRDNSKNTLYLQMNSLRAEDTAVYYCARDYYDNSRHHWGFDYWGQGTLVTVSS
VL: DIVMTQTPLSLPVTPGEPASISCRSSRSLLDSDDGNTYLDWYLQKPGQSPQLLIYTLSYRASGVPDRFSGSGSGTDFTLKISRVEAEDVGVYYCMQRVEFPITFGQGTRLEIKR
B5 returned a Kd in assay [2] of 2.71 nM.

B6: anti-TIM-1 monoclonal antibody 2.70.2 (antibody, human IgG4, kappa, V domains shown)
VH: QVQLVESGGGVVQPGRSLRLSCAASGFIFSRYGMHWVRQAPGKGLKWVAVIWYDGSNKLYADSVKGRFTISRDNSKNTLYLQMNSLRAEDTAVYYCARDYYDNSRHHWGFDYWGQGTLVTVSS
VL: DIVMTQTPLSLPVTPGEPASISCRSSRSLLDSDDGNTYLDWYLQKPGQSPQLLIYTLSYRASGVPDRFSGSGSGTDFTLKISRVEAEDVGVYYCMQRVEFPITFGQGTRLEIKR
notes: also called mAb 2.70.2; mAb2.70.2
As for B6, the binding result in assay [3] and in assay [4] was “no binding” throughout. Further, the “Geo Mean Ratio (relative to negative control)” value in assay [1] amounted to 19.4 ratio; in assay [5], 8.8 ratio.

B7: anti-TIM-1 monoclonal antibody 1.37 (antibody, V domains shown)
VH: EVQLVESGGGLVQPGGSLRLSCAASGFTFTNYWMSWVRQAPGKGLEWVANIQQDGSEKYYVDSVRGRFTISRDNAKNSLYLQMNSLRAEDSAVYYCARWDYWGQGTLVTVSS
VL: DIVMTQTPLSSTVILGQPASISCRSSQSLVHSDGNTYLNWLQQRPGQPPRLLIYMISNRFSGVPDRFSGSGAGTDFTLKISRVEAEDVGVYYCMQATESPQTFGQGTKVEIKR
Molecule B7 showed a Kd in assay [2] of 2.78 nM. This counts as single-digit nanomolar.

B8: anti-TIM-1 monoclonal antibody 2.59 (antibody, V domains shown)
VH: QSGPRLVKPSQTLSLTCTVSGGSISSDGYYWSWIRQHPGKGLEWIGYIYYSGSTFYNPSLKSRVAISVDTSKNQFSLKLSSVTAADTAVYYCARESPHSSNWYSGFDCWGQGTLVTVSS
VL: TQSPDFQSVTPKEKVTITCRASQSIGSRLHWYQQKPDQSPKLLIKYASQSFSGVPSRFSGSGSGTDFTLTINSLEAEDAATYYCHQSSNLPFTFGPGTKVDIKR
Regarding B8, the “Geo Mean Ratio (relative to negative control)” value in assay [1] was 15.2 ratio; in assay [5] it was 7.7 ratio. In addition, binding in assay [2] was characterised by a dissociation constant (Kd) of 0.38 nM.
